Measurements: patent US20140303084A1 (Biogen, published 2014)
Square brackets hold non-standard residues; d marks the D form. Primed or numbered codes have the meaning given here. Side chains are listed from the residue outwards. Ends that are not written are not given here. * marks the point of attachment. N‑PEG5kmaleimide = Cys side chain bound to N-PEG 5 kDa maleimide; Biotin = O=C1N[C@H]2[C@H](CS[C@H]2CCCCC(=O)*)N1; Succinimide(1-Et,3-yl) = CCN1C(=O)CC(*)C1=O; PEG4(3) = not defined here; PEG12′ = not defined here; Orn = NCCC[C@H](N)C(=O)O; PEG2″ = not defined here; PEG4″ = PEG4 spacer unit; PEG5′ = not defined here; Dab = NCC[C@H](N)C(=O)O; Dap = NC[C@H](N)C(=O)O; pip = not defined here; PEG4′ = PEG4 spacer; Acm = CC(=O)NC*

B1: CGGGLVPRGGG-RRAPGKLT-Asp-LASY-Lys-WLFWTGIA (peptide)
peptide: CGGGLVPRGGGRRAPGKLTDLASYKWLFWTGIA
B2: C(N-PEG5kmaleimide)-PEG4-LVPR-PEG4-rRAPGKLTCLASYCWLFWTGIA (peptide)
peptide: C(N‑PEG5kmaleimide)[PEG4′]LVPR[PEG4′][dR]RAPGKLTCLASYCWLFWTGIA
modifications: cysteine pairing not given here
B3: RRAPGKLT-Dab-LASY-Asp-WLFWTGIA-CONH2 (peptide)
peptide: RRAPGKLT[Dab]LASYDWLFWTGIA-NH2
modifications: N-terminus assumed
SMILES: CC[C@H](C)[C@H](NC(=O)CNC(=O)[C@@H](NC(=O)[C@H](Cc1c[nH]c2ccccc12)NC(=O)[C@H](Cc1ccccc1)NC(=O)[C@H](CC(C)C)NC(=O)[C@H](Cc1c[nH]c2ccccc12)NC(=O)[C@H](CC(=O)O)NC(=O)[C@H](Cc1ccc(O)cc1)NC(=O)[C@H](CO)NC(=O)[C@H](C)NC(=O)[C@H](CC(C)C)NC(=O)[C@H](CCN)NC(=O)[C@@H](NC(=O)[C@H](CC(C)C)NC(=O)[C@H](CCCCN)NC(=O)CNC(=O)[C@@H]1CCCN1C(=O)[C@H](C)NC(=O)[C@H](CCCNC(=N)N)NC(=O)[C@@H](N)CCCNC(=N)N)[C@@H](C)O)[C@@H](C)O)C(=O)N[C@@H](C)C(N)=O
B4: C(Acm)GGGGfpipR-PEG5-rRAPGKLTCLASYCWLFWTGIA (peptide)
peptide: C(Acm)GGGG[dF][pip]R[PEG5′][dR]RAPGKLTCLASYCWLFWTGIA
modifications: cysteine pairing not given here; reading uncertain; also: printed as C(Acm)GGGGfpipR-PEG5-rRAPGKLTCLASYCWLFWTGIA
B5: RRAPGKLT-Asp-LASY-Orn-WLFWTGIA-CONH2 (peptide)
peptide: RRAPGKLTDLASY[Orn]WLFWTGIA-NH2
modifications: N-terminus assumed
SMILES: CC[C@H](C)[C@H](NC(=O)CNC(=O)[C@@H](NC(=O)[C@H](Cc1c[nH]c2ccccc12)NC(=O)[C@H](Cc1ccccc1)NC(=O)[C@H](CC(C)C)NC(=O)[C@H](Cc1c[nH]c2ccccc12)NC(=O)[C@H](CCCN)NC(=O)[C@H](Cc1ccc(O)cc1)NC(=O)[C@H](CO)NC(=O)[C@H](C)NC(=O)[C@H](CC(C)C)NC(=O)[C@H](CC(=O)O)NC(=O)[C@@H](NC(=O)[C@H](CC(C)C)NC(=O)[C@H](CCCCN)NC(=O)CNC(=O)[C@@H]1CCCN1C(=O)[C@H](C)NC(=O)[C@H](CCCNC(=N)N)NC(=O)[C@@H](N)CCCNC(=N)N)[C@@H](C)O)[C@@H](C)O)C(=O)N[C@@H](C)C(N)=O
B6: RRAPGKLT-Asp-LASY-Dab-WLFWTGIA-CONH2 (peptide)
peptide: RRAPGKLTDLASY[Dab]WLFWTGIA-NH2
modifications: N-terminus assumed
SMILES: CC[C@H](C)[C@H](NC(=O)CNC(=O)[C@@H](NC(=O)[C@H](Cc1c[nH]c2ccccc12)NC(=O)[C@H](Cc1ccccc1)NC(=O)[C@H](CC(C)C)NC(=O)[C@H](Cc1c[nH]c2ccccc12)NC(=O)[C@H](CCN)NC(=O)[C@H](Cc1ccc(O)cc1)NC(=O)[C@H](CO)NC(=O)[C@H](C)NC(=O)[C@H](CC(C)C)NC(=O)[C@H](CC(=O)O)NC(=O)[C@@H](NC(=O)[C@H](CC(C)C)NC(=O)[C@H](CCCCN)NC(=O)CNC(=O)[C@@H]1CCCN1C(=O)[C@H](C)NC(=O)[C@H](CCCNC(=N)N)NC(=O)[C@@H](N)CCCNC(=N)N)[C@@H](C)O)[C@@H](C)O)C(=O)N[C@@H](C)C(N)=O
B7: RRAPGKLT-Lys-LASY-Glu-WLFWTGIA-CONH2 (peptide)
peptide: RRAPGKLTKLASYEWLFWTGIA-NH2
B8: CKTYFWKpGNIMVTFC-PEG12-Lys(PEG2-Biotin)-PEG12-rRAPGKLTCLASYCWLFWTGIA (peptide)
peptide: CKTYFWK[dP]GNIMVTFC[PEG12′]K([PEG2″-Biotin])[PEG12′][dR]RAPGKLTCLASYCWLFWTGIA
modifications: cysteine pairing not given here
B9: C(PEG5k)GGG-RRAPGKLT-Asp-LASY-Lys-WLFWTGIA (peptide)
peptide: C(PEG 5 kDa)GGGRRAPGKLTDLASYKWLFWTGIA
modifications: not fully specified; printed as C(PEG5k)GGG-RRAPGKLT-Asp-LASY-Lys-WLFWTGIA
B10: RRAPGKLT-Asp-LASY-Dap-WLFWTGIA-CONH2 (peptide)
peptide: RRAPGKLTDLASY[Dap]WLFWTGIA-NH2
modifications: N-terminus assumed
SMILES: CC[C@H](C)[C@H](NC(=O)CNC(=O)[C@@H](NC(=O)[C@H](Cc1c[nH]c2ccccc12)NC(=O)[C@H](Cc1ccccc1)NC(=O)[C@H](CC(C)C)NC(=O)[C@H](Cc1c[nH]c2ccccc12)NC(=O)[C@H](CN)NC(=O)[C@H](Cc1ccc(O)cc1)NC(=O)[C@H](CO)NC(=O)[C@H](C)NC(=O)[C@H](CC(C)C)NC(=O)[C@H](CC(=O)O)NC(=O)[C@@H](NC(=O)[C@H](CC(C)C)NC(=O)[C@H](CCCCN)NC(=O)CNC(=O)[C@@H]1CCCN1C(=O)[C@H](C)NC(=O)[C@H](CCCNC(=N)N)NC(=O)[C@@H](N)CCCNC(=N)N)[C@@H](C)O)[C@@H](C)O)C(=O)N[C@@H](C)C(N)=O
B11: rRAPGKLTCLASYCWLFWTGIA-PEG4-C(N-PEG5k maleimide) (peptide)
peptide: [dR]RAPGKLTCLASYCWLFWTGIA[PEG4(3)]C(N‑PEG5k maleimide)
modifications: cysteine pairing not given here
B12: SKQGRPISPDRRAAGKLT-Asp-LASY-Orn-WLFWTGIA (peptide)
peptide: SKQGRPISPDRRAAGKLTDLASY[Orn]WLFWTGIA
modifications: not fully specified; printed as SKQGRPISPDRRAAGKLT-Asp-LASY-Orn-WLFWTGIA
B13: RRAPGKLT-Dap-LASY-Asp-WLFWTGIA-CONH2 (peptide)
peptide: RRAPGKLT[Dap]LASYDWLFWTGIA-NH2
modifications: N-terminus assumed
SMILES: CC[C@H](C)[C@H](NC(=O)CNC(=O)[C@@H](NC(=O)[C@H](Cc1c[nH]c2ccccc12)NC(=O)[C@H](Cc1ccccc1)NC(=O)[C@H](CC(C)C)NC(=O)[C@H](Cc1c[nH]c2ccccc12)NC(=O)[C@H](CC(=O)O)NC(=O)[C@H](Cc1ccc(O)cc1)NC(=O)[C@H](CO)NC(=O)[C@H](C)NC(=O)[C@H](CC(C)C)NC(=O)[C@H](CN)NC(=O)[C@@H](NC(=O)[C@H](CC(C)C)NC(=O)[C@H](CCCCN)NC(=O)CNC(=O)[C@@H]1CCCN1C(=O)[C@H](C)NC(=O)[C@H](CCCNC(=N)N)NC(=O)[C@@H](N)CCCNC(=N)N)[C@@H](C)O)[C@@H](C)O)C(=O)N[C@@H](C)C(N)=O
B14: CGGG-RRAPGKLT-Asp-LASY-Lys-WLFWTGIA (peptide)
peptide: CGGGRRAPGKLTDLASYKWLFWTGIA
B15: SKQGRPISPDrRAAGKLTCLASYCWLFWTGIA-PEG4-C(N-PEG5k maleimide) (peptide)
peptide: SKQGRPISPD[dR]RAAGKLTCLASYCWLFWTGIA[PEG4″]C(N‑PEG5k maleimide)
modifications: cysteine pairing not given here
B16: C(N-ethylmaleimide)-PEG4-LVPR-PEG4-rRAPGKLTCLASYCWLFWTGIA (peptide)
peptide: C(Succinimide(1-Et,3-yl))[PEG4′]LVPR[PEG4′][dR]RAPGKLTCLASYCWLFWTGIA
modifications: cysteine pairing not given here
B17: C(N-PEG5kmaleimide)-PEG4-SKQGRPISPDrRAAGKLTCLASYCWLFWTGIA (peptide)
peptide: C(N‑PEG5kmaleimide)[PEG4′]SKQGRPISPD[dR]RAAGKLTCLASYCWLFWTGIA
modifications: cysteine pairing not given here

Molecular target: human Factor IXa (human, UniProt P00740 47-191; P00740 227-461)
Test: cell-based or functional assay

Binder | EC50 [µM], FXa generation assay
B1 | < 0.5 µM
B2 | > 1 µM
B3 | > 1 µM
B4 | > 1 µM
B5 | < 0.5 µM
B6 | > 10 µM
B7 | > 1 µM
B8 | > 20 µM
B9 | > 1 µM
B10 | > 1 µM
B11 | > 1 µM
B12 | < 0.5 µM
B13 | > 10 µM
B14 | < 0.5 µM
B15 | > 5 µM
B16 | > 1 µM
B17 | > 1 µM
